One molecule from patent US7304033 (Bristol-Myers Squibb, dated 2007) can be followed below.

The target of one experiment is T1, CD86Ig (UniProt P42081 24-247).
T1 construct: extracellular domain; also called soluble CD86Ig; B7-2 Ig
Kind of experiment: SPR, CD86Ig immobilized, monomeric analytes. The protocol: (§1) Association and disassociation analyses were performed using BIA evaluation 2.1 Software (Pharmacia). Association rate constants $kon$ were calculated in two ways, assuming both homogenous single-site interactions and parallel two-site interactions. For single-site interactions, $kon$ values were calculated according to the equation $R_t=Req(1-\exp^{-ks(t-t_0)})$, where R_t is a response at a given time, t; $Req$ is the steady-state response; t_0 is the time at the start of the injection; and $k_s=dR/dt=kon \cdot Ckoff$, and where C is a concentration of analyte, calculated in terms of monomeric binding sites. For two-site interactions $kon$ values were calculated according to the equation $R_t=Req1(1-\exp^{-ks1(t-t_0)})+Req2(1-[…])$. For each model, the values of $kon$ were determined from the calculated slope (to about 70% maximal association) of plots of k_s versus C.

The target in the next experiment is T2, CD80Ig (UniProt P33681 35-242).
T2 construct: extracellular domain; also called soluble CD80Ig; B7-1 Ig
T2 sequence (P33681 whole entry, the tested form may be a part): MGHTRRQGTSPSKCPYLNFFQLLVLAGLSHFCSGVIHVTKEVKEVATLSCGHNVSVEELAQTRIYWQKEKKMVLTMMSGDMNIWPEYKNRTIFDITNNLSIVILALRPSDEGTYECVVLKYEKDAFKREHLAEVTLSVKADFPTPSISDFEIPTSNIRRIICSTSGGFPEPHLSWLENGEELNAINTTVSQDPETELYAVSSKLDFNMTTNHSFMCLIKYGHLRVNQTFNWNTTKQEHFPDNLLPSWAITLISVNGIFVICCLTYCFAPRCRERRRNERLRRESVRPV
Kind of experiment: SPR, CD80Ig immobilized, monomeric analytes. The protocol:
as §1
Background: In SPR one partner is held on a chip, and binding of the other changes the refractive index at the surface.

T1 sequence (P42081 24-247): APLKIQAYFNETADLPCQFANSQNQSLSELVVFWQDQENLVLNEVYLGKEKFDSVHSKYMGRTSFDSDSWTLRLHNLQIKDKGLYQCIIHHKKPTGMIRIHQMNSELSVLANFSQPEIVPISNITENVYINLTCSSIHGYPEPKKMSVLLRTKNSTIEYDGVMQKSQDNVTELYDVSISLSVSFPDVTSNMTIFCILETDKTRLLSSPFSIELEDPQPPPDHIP

B1: L104EA29YXC120S (receptor)
chain: MHVAQPAVVLASSRGIASFVCEYASPGKYTEVRVTVLRQADSQVTEVCAATYMMGNELTFLDDSICTGTSSGNQVNLTIQGLRAMDTGLYICKVELMYPPPYYEGIGNGTQIYVIDPEPSPDSD
notes: Monomeric; prepared in an identical manner to CTLA4XC120S; also called single chain L104EA29Y extracellular domain
Take B1: in the experiment with CD86Ig, the “fold higher affinity than CTLA4X120S” value was ~2 fold and the “fold slower rate of dissociation than CTLA4X120S” value is ~3 fold. For the same molecule, in the experiment with CD80Ig, the “fold higher affinity than CTLA4X120S” value is ~2 fold and the “fold slower rate of dissociation than CTLA4X120S” value was ~3 fold.
